{"source": "paper PMC4094107", "about": "(Nature structural & molecular biology, 2010)", "binders": {"B1": {"name": "GST-RAD51 truncation 3 (R51T3, amino acids 184-257) (domain or fragment, human, UniProt Q06609 184-257, looked up)", "chain": "DVLDNVAYARAFNTDHQTQLLYQASAMMVESRYALLIVDSATALYRTDYSGRGELSARQMHLARFLRMLLRLAD"}, "B2": {"name": "GST-PALB2 truncation 5 (P2T5, amino acids 853-1186) (domain or fragment, human, UniProt Q86YC2 853-1186, looked up)", "chain": "GNLQLVSELKNPSGSCSVDVSAMFWERAGCKEPCIITACEDVVSLWKALDAWQWEKLYTWHFAEVPVLQIVPVPDVYNLVCVALGNLEIREIRALFCSSDDESEKQVLLKSGNIKAVLGLTKRRLVSSSGTLSDQQVEVMTFAEDGGGKENQFLMPPEETILTFAEVQGMQEALLGTTIMNNIVIWNLKTGQLLKKMHIDDSYQASVCHKAYSEMGLLFIVLSHPCAKESESLRSPVFQLIVINPKTTLSVGVMLYCLPPGQAGRFLEGDVKDHCAAAILTSGTIAIWDLLLGQCTALLPPVSDQHWSFVKWSGTDSHLLAGQKDGNIFVYHYS"}, "B3": {"name": "BRC3/4-GST polypeptide (BRC3 and BRC4 region of BRCA2, amino acids 1409-1596) (domain or fragment, human, UniProt P51587 1409-1596, looked up)", "chain": "LTATKTEQNIKDFETSDTFFQTASGKNISVAKESFNKIVNFFDQKPEELHNFSLNSELHSDIRKNKMDILSYEETDIVKHKILKESVPVGTGNQLVTFQGQPERDEKIKEPTLLGFHTASGKKVKIAKESLDKVKNLFDEKEQGTSEITSFSHQWAKTLKYREACKDLELACETIEITAAPKCKEMQN"}, "B4": {"name": "GST-PALB2 truncation 1 (P2T1, amino acids 1-200) (domain or fragment, human, UniProt Q86YC2 1-200, looked up)", "chain": "MDEPPGKPLSCEEKEKLKEKLAFLKREYSKTLARLQRAQRAEKIKHSIKKTVEEQDCLSQQDLSPQLKHSEPKNKICVYDKLHIKTHLDEETGEKTSITLDVGPESFNPGDGPGGLPIQRTDDTQEHFPHRVSDPSGEQKQKLPSRRKKQQKRTFISQERDCVFGTDSLRLSGKRLKEQEEISSKNPARSPVTEIRTHLL"}}, "key": {"PALB2 (purified from …) [1]": {"molecular_target": "T1, PALB2 (purified from baculovirus-infected Sf9 cells as GST-PALB2-His) (human, UniProt Q86YC2 1-1186)", "T1 sequence (looked up)": "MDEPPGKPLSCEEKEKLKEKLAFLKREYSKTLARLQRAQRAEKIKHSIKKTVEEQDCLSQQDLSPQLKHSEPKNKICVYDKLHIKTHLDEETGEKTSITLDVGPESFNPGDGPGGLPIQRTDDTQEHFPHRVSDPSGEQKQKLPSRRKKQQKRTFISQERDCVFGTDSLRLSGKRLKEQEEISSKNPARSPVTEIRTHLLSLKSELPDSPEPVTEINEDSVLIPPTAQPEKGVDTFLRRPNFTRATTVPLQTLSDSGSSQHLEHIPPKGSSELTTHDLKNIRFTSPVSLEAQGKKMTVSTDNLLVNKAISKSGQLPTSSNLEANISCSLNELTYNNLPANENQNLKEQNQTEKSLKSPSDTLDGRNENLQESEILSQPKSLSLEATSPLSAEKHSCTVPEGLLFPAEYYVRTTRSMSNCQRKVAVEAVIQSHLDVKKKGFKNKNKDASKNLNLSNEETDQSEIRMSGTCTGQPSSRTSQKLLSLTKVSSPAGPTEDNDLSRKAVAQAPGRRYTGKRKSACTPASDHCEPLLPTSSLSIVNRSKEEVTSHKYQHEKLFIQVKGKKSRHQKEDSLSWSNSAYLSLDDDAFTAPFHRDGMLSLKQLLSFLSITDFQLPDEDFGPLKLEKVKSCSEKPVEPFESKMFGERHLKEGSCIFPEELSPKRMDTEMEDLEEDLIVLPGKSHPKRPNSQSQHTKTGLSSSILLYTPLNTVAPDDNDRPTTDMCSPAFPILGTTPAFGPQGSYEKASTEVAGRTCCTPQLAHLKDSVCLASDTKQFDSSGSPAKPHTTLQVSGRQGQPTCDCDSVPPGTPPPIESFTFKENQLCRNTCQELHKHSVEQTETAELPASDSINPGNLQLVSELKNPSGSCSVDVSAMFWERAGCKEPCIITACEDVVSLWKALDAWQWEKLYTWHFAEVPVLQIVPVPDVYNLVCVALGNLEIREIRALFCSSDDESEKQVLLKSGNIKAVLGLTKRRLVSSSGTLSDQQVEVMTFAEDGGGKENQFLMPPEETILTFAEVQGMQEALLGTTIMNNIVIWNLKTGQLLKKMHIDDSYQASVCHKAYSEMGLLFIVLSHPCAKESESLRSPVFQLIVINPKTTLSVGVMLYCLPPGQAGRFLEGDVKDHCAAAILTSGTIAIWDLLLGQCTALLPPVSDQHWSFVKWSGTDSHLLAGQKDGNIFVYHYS", "assay": "co-IP"}, "[2]": {"molecular_target": "B4", "assay": "co-IP"}, "[3]": {"molecular_target": "B2", "assay": "co-IP"}, "Human RAD51 (purified)": {"molecular_target": "T2, Human RAD51 (purified) (human, UniProt Q06609 1-339)", "T2 sequence (looked up)": "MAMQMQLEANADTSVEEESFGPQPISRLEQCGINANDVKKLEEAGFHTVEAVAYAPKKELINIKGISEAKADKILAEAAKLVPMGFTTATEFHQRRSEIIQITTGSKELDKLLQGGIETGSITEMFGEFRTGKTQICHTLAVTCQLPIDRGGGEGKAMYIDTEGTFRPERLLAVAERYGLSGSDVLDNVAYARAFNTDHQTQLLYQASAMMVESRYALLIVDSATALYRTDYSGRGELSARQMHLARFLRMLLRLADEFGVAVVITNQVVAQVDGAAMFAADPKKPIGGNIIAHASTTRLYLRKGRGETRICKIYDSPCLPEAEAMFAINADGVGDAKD", "assay": "pull-down"}, "PALB2 (purified from …) [4]": {"molecular_target": "T1, PALB2 (purified from …)", "assay": "co-IP", "remark": "listed apart in the source"}}, "note": "Where two headings read alike, the source gives them in different places.", "data": [{"binder": "B1", "values": [{"measurement": "binding result", "setting": "PALB2 (purified from …) [1]", "result": "binds"}, {"measurement": "binding result", "setting": "[2]", "result": "binds"}, {"measurement": "binding result", "setting": "[3]", "result": "binds"}]}, {"binder": "B2", "values": [{"measurement": "binding result", "setting": "Human RAD51 (purified)", "result": "binds"}]}, {"binder": "B3", "values": [{"measurement": "binding result", "setting": "PALB2 (purified from …) [4]", "result": "binds"}]}, {"binder": "B4", "values": [{"measurement": "binding result", "setting": "Human RAD51 (purified)", "result": "binds"}]}]}
